Measured values from patent US20240336657A1, “G-ALPHA-S PEPTIDE INHIBITORS AND USES THEREOF” (The Regents of the University of California, priority 2021, published 2024).
Positions of bridges follow the written chain, without caps; N, C: chain ends. Non-standard residues stand in square brackets, D forms with d. Residues, ends and D or L forms follow the SMILES beside them.

How the values were obtained:
[1] = molecular target: WT Gαs (Homo sapiens, UniProt P63092); experiment: Gαs inhibition in the presence of Gβγ (FIG. 4, FIGS. 6A-6B); format: biochemical
[2] = molecular target: Gαs S275L (Homo sapiens, UniProt P63092, S275L); experiment: Gαs inhibition with mutation in the cyclic peptide binding site (FIGS. 6A-6B); format: biochemical; settings: in the assay tested
[3] = molecular target: R201H Gαs (Homo sapiens, UniProt P63092, R201H); experiment: Gαs mutant inhibition in the presence of Gβγ (FIGS. 6A-6B); format: biochemical
[4] = molecular target: R201C Gαs/GDP (Homo sapiens, UniProt P63092, R201C); experiment: Binding to R201C Gαs/GDP (FIGS. 7A-7B)
[5] = molecular target: R201C Gαs (Homo sapiens, UniProt P63092, R201C); experiment: Gαs mutant inhibition (FIGS. 1A-1B, FIGS. 6A-6B); format: biochemical; settings: in the presence of Gβγ
[6] = molecular target: WT Gαs (purified, adenylyl cyclase activity assay) (UniProt P63092-2 7-380); experiment: cell-based or functional assay
[7] = molecular target: T1, Biotinylated His/Avi-tagged Gαs used in the RaPID selection, GppNHp-bound (human, UniProt P63092 7-394, biotin on the Avi tag (BirA co-expressed)); experiment: RaPID comparison selection: peptide-mRNA-cDNA complexes on Gαs-immobilized streptavidin beads, qPCR and sequencing
T1 construct: Immobilized on streptavidin magnetic beads

[8] = molecular target: T2, Biotinylated Avi-tagged Gαi1 (residues 2-354 of human Gαi1), GDP-bound (human, UniProt P63096 2-354, biotin on the Avi tag (BirA)); experiment: BLI, biotinylated Gα on streptavidin biosensors
T2 construct: Loaded with GDP; also called avi-Gαi (FL, WT)
Procedure: (§1) BLI experiments were performed using an OctetRED384 instrument from ForteBio. All experiments were performed at 25° C. using BLI buffer (10 mM HEPES pH 7.4, 150 mM NaCl, 1 mM MgCl₂, 0.05% Tween-20, 0.1% DMSO, 0.2 mM GppNHp or GDP). Cyclic peptides were diluted to a series of concentrations in BLI buffer plus 10 μM Biotin. Assays were conducted in Greiner 384well, black, flat bottom polypropylene plates containing the protein solutions, BLI buffer plus 10 μM Biotin for dissociation, and serial dilutions of cyclic peptides to be tested.
(§2) Biotinylated proteins were immobilized on Streptavidin biosensors by dipping sensors into plate wells containing protein solutions at a concentration of 100-150 nM. Protein loading is around 2-3 nm. Sensors loaded with proteins were moved and dipped into wells with BLI buffer plus 10 μM Biotin to block unlabeled Streptavidin. […] Association and dissociation times were carefully determined to ensure full association and dissociation.
(§3) Raw kinetic data collected were processed with the Data Analysis software provided by the manufacturer using single reference subtraction in which buffer-only reference was subtracted (For GN13 analysis). […] The resulting data were analyzed based on a 1:1 binding model from which kₒₙ and koff values were obtained and then Kd values were calculated.

[9] = molecular target: T3, Biotinylated Avi-tagged Gαi1 (residues 2-354 of human Gαi1), GppNHp-bound (human, UniProt P63096 2-354, biotin on the Avi tag (BirA)); experiment: BLI, biotinylated Gα on streptavidin biosensors
T3 construct: Loaded with GppNHp; Same polypeptide as m9, other nucleotide state
Procedure: as §1, §2, §3

[10] = molecular target: WT Gαs in HEK293 cell membranes, P63092; experiment: cell-based or functional assay
[11] = molecular target: T4, Biotinylated Avi-tagged WT Gαs (residues 7-380 of the short isoform of human Gαs), GDP-bound (human, UniProt P63092 7-394, biotin on the Avi tag (BirA)); experiment: TR-FRET competition: biotinylated Gαs or Gαi (GDP) against His-Gβγ(C68S)
T4 construct: Loaded with GDP; Same polypeptide as m7, other nucleotide state; also called biotinylated Gαs WT
Procedure: (§4) Biotinylated avi-Gαs (6-end, WT) and avi-Gαi (FL, WT) were diluted to 32 nM (8×) using assay buffer (1× PBS 7.4, 2 mM DTT, 0.1% BSA, 2 mM MgCl₂, 0.05% Tween plus 0.5 mM GDP), followed by mixing with a same volume of 8× streptavidin XL665 stock (32 nM in the assay buffer). 8× His-Gβ/γ (C68S) stock (16 nM) and 8× anti-6His-Tb cryptate stock (0.4 μg/mL) were added into the Gα/XL665 mixtures. Finally, 2× stocks of cyclic peptides were added with the protein mixtures. After incubation at room temperature for 2 hour at room temperature. […] FRET Signal was calculated as the ratio of [Read B]/[Read A].

[12] = molecular target: WT Gαs (purified, steady-state GTPase, GDP dissociation and GTPγS binding assays) (UniProt P63092-2 7-380); experiment: cell-based or functional assay
[13] = molecular target: T4, Biotinylated Avi-tagged WT Gαs …; experiment: TR-FRET competition: biotinylated GDP-bound Gαs WT against His-Gβγ(C68S)
Procedure: as §4

WT Gαs, sequence (P63092 whole entry): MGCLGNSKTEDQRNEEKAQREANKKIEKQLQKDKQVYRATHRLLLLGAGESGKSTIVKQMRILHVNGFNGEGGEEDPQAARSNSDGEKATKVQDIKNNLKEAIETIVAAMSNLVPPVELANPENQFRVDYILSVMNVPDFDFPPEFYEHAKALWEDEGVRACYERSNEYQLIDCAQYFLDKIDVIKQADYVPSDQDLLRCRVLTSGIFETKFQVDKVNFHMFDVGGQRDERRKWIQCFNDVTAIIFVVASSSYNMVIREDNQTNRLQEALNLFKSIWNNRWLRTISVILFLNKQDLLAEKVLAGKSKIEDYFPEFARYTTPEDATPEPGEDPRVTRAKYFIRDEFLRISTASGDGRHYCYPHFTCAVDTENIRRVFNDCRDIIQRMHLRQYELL
T4 sequence (P63092 other isoform, or with tags, fused parts or gaps limits assumed): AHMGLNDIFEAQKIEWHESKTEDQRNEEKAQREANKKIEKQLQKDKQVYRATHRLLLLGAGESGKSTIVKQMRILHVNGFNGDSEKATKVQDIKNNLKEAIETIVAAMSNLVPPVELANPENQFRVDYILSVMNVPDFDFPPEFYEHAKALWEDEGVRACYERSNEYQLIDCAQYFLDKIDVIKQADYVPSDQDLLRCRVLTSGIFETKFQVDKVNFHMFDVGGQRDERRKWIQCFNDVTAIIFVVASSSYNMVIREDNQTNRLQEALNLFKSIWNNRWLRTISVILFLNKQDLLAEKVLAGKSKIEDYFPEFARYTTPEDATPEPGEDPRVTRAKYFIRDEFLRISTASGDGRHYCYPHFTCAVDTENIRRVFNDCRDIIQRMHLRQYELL
T2 sequence (P63096 other isoform, or with tags, fused parts or gaps limits assumed): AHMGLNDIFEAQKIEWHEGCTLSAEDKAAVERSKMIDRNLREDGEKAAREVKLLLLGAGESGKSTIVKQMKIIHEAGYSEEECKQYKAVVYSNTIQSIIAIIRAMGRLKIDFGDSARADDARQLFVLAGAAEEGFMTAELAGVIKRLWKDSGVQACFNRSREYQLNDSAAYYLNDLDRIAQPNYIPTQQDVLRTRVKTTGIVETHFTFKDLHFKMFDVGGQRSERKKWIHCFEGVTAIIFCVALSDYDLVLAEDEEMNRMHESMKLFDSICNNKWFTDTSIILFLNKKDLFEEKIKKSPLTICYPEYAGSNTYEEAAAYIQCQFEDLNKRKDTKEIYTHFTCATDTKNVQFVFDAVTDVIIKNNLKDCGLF
T3 sequence (P63096 other isoform, or with tags, fused parts or gaps limits assumed): as above
WT Gαs in HEK293 cell membranes, P63092, sequence (P63092 2-394): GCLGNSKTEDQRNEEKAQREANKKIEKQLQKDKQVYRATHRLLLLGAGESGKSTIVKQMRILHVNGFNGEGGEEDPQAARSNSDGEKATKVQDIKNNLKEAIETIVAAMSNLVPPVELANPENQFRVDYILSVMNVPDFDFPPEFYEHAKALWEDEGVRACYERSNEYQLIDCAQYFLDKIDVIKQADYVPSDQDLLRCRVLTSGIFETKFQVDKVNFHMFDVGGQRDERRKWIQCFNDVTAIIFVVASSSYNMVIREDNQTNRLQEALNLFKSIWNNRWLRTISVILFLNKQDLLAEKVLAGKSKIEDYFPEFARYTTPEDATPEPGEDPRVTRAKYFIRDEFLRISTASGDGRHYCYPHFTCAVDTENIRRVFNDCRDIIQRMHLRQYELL
R201C Gαs/GDP, sequence (P63092 whole entry R201C): as the sequence (P63092 whole entry) above, with R201C counted along it
R201C Gαs, sequence (P63092 whole entry R201C): as the sequence (P63092 whole entry) above, with R201C counted along it
Gαs S275L, sequence (P63092 whole entry S275L): as the sequence (P63092 whole entry) above, with S275L counted along it
T1 sequence (P63092 other isoform, or with tags, fused parts or gaps limits assumed): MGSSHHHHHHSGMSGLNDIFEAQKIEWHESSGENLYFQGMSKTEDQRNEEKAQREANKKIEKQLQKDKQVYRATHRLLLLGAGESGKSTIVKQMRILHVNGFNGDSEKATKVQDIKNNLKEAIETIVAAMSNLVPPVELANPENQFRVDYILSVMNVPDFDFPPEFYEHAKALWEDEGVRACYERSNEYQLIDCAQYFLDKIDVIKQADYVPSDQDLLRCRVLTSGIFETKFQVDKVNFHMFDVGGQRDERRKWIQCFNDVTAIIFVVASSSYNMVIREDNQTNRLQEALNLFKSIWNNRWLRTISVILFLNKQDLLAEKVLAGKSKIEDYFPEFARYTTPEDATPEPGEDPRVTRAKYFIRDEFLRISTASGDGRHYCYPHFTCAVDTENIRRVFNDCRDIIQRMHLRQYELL
R201H Gαs, sequence (P63092 whole entry R201H): as the sequence (P63092 whole entry) above, with R201H counted along it
WT Gαs (purified, adenylyl cyclase activity assay), sequence (P63092 other isoform, or with tags, fused parts or gaps limits assumed): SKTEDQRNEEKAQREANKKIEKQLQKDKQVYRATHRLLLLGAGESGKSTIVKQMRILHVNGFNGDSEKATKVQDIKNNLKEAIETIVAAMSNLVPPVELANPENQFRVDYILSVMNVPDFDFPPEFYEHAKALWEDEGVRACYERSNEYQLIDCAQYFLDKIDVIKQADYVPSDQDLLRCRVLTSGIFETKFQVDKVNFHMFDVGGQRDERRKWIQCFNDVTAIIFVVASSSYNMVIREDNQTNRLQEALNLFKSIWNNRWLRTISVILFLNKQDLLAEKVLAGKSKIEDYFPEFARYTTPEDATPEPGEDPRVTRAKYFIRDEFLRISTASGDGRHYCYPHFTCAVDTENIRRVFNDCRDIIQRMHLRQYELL

Q: For `CC[C@H](C)[C@@H]1NC(=O)[C@H](Cc2c[nH]cn2)NC(=O)[C@H](Cc2ccc(O)cc2)NC(=O)[C@H]([C@@H](C)CC)NC(=O)[C@H](CO)NC(=O)[C@H](CCC(N)=O)NC(=O)[C@H](Cc2ccccc2)NC(=O)[C@@H](Cc2ccc(O)cc2)NC(=O)CSC[C@@H](C(N)=O)NC(=O)[C@H](CC(C)C)NC(=O)[C@H](CCC(=O)O)NC(=O)CNC(=O)[C@H](Cc2c[nH]c3ccccc23)NC1=O` [GR6] ({CH2CO}-[dY]FQSIYHIWGELC-NH2; thioether N-13), which “inhibition of WT Gαs” value [1] is on record?
A: The value was “potently inhibits”.

Q: What about the “inhibition with S275L mutation in the cyclic peptide binding site” value [2] of the same molecule?
A: The value was “blocked”.

Q: And the “inhibition of R201H Gαs” value [3]?
A: The value was “inhibits”.

Q: What about the “binding to R201C Gαs/GDP” value [4] of the same molecule?
A: Its value is “increased binding”.

Q: And the “inhibition of R201C Gαs” value [5]?
A: Its value is “inhibits”.

B1: GN13 (peptide)
peptide: {CH2CO}-[dY]FESVYAIWGTLCG-NH2
modifications: thioether N-13
SMILES: CC[C@H](C)[C@@H]1NC(=O)[C@H](C)NC(=O)[C@H](Cc2ccc(O)cc2)NC(=O)[C@H](C(C)C)NC(=O)[C@H](CO)NC(=O)[C@H](CCC(=O)O)NC(=O)[C@H](Cc2ccccc2)NC(=O)[C@@H](Cc2ccc(O)cc2)NC(=O)CSC[C@@H](C(=O)NCC(N)=O)NC(=O)[C@H](CC(C)C)NC(=O)[C@H]([C@@H](C)O)NC(=O)CNC(=O)[C@H](Cc2c[nH]c3ccccc23)NC1=O
notes: Residue numbers in the text (E3, V5, I8, W9, T11) fit this order; In the RaPID selections the peptide carried a GSGSGS linker, puromycin and its mRNA/cDNA; also called cyclic peptide GN13
Q: For B1, which “IC50, inhibition of Gαs-mediated adenylyl cyclase activation (cAMP production, reconstituted Gαs activity assay)” value [6] is on record?
A: Its value is 4150 nM.

Q: What about the “fold selectivity for GppNHp-bound over GDP-bound Gαs” value [7] of the same molecule?
A: The value was > 100 fold.

Q: Does B1 bind [8]?
A: Result: no binding

Q: Does B1 bind [9]?
A: Result: no binding

Q: What about the IC50, inhibition of ISO-stimulated Gαs activity (cAMP) in HEK293 cell membranes [10] of the same molecule?
A: The IC50, inhibition of ISO-stimulated Gαs activity (cAMP) in HEK293 cell membranes was 12200 nM.

B2: GD20 (peptide)
peptide: {CH2CO}-[dY]LITFRQWAFNLPCG-NH2
modifications: thioether N-14
SMILES: CC[C@H](C)[C@@H]1NC(=O)[C@H](CC(C)C)NC(=O)[C@@H](Cc2ccc(O)cc2)NC(=O)CSC[C@@H](C(=O)NCC(N)=O)NC(=O)[C@@H]2CCCN2C(=O)[C@H](CC(C)C)NC(=O)[C@H](CC(N)=O)NC(=O)[C@H](Cc2ccccc2)NC(=O)[C@H](C)NC(=O)[C@H](Cc2c[nH]c3ccccc23)NC(=O)[C@H](CCC(N)=O)NC(=O)[C@H](CCCNC(=N)N)NC(=O)[C@H](Cc2ccccc2)NC(=O)[C@H]([C@@H](C)O)NC1=O
notes: also called cyclic peptide GD20
Q: Which “fold selectivity for Gαs over Gαi” value [11] does the source give for B2 here?
A: The value was ≥ 100 fold.

Q: What about the “IC50, inhibition of Gαs steady-state GTPase activity” value [12] of the same molecule?
A: The value was 1150 nM.

Q: What about the IC50 [13] of the same molecule?
A: The IC50 was 18.4 nM.
